Data as given in the RNAGym collection of RNA variant scans (doi:10.1073/pnas.2313332121).
Variants at the floor of the assay were thinned out.

B1: TPR 5TU (parent)
chain: GGAUCUUCUCGAUCUAACAAAAAAGACAAAUCUGCCACAAAGCUUGAGAGCAUCUUCGGAUGCAGAGGCGGCAGCCUUCGGUGGCGCGAUAGCGCCAACGUUCUCAACUAUGACACGCAAAACGCGUGCUCCGUUGAAUGGAGUUUAUCAUG

Variants of: B1
Assay: polymerase ribozyme fitness, log enrichment relative to wild type (log ratio); higher = more active; in vitro selection for triplet polymerase activity
Procedure, shortened: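 For each subunit of a heterodimeric triplet polymerase ribozyme, a mutant library was built by PCR and transcribed, then taken through a single in vitro selection round in triplicate. Selection involved annealing to a biotinylated primer, the partner subunit and triplets, incubation frozen at −7 °C, gel excision of extended constructs, capture on streptavidin beads and RT-PCR. Genotypes were retained after Illumina sequencing of inputs and outputs only with ≥10 input reads and ≥1 read in each output. Fitness is defined as the logarithm of a genotype's enrichment relative to wild-type enrichment, using inverse-variance-weighted averages across replicates, with the logarithm taken to base 2.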

**Q.** Which “polymerase ribozyme fitness (log ratio)” value does the source give for U7A A28U G67C C87U C96G C123A here?
**A.** ≤ -4.2

**Q.** For U6G G11A, which “polymerase ribozyme fitness (log ratio)” value is on record?
**A.** -0.786

**Q.** For C8G A41U A49C G62A C79U C85U C96U C114G A115G, which “polymerase ribozyme fitness (log ratio)” value is on record?
**A.** ≤ -4.2

**Q.** For C8A A22U A41C C93A G136C, which “polymerase ribozyme fitness (log ratio)” value is on record?
**A.** ≤ -4.2

**Q.** Which “polymerase ribozyme fitness (log ratio)” value does the source give for C8G G50A A66C G84A here?
**A.** ≤ -4.2

**Q.** Which “polymerase ribozyme fitness (log ratio)” value does the source give for U6G A26C G83U A89U here?
**A.** -3.85

**Q.** Which “polymerase ribozyme fitness (log ratio)” value does the source give for U7G C75G G84A G141A here?
**A.** ≤ -4.2

**Q.** Which “polymerase ribozyme fitness (log ratio)” value does the source give for U6C A19U A60C C87A A91U U134G here?
**A.** ≤ -4.2

**Q.** Which “polymerase ribozyme fitness (log ratio)” value does the source give for C8G U13G A40C U77A G94A A97C C99U A113G G117U U139G U144G here?
**A.** ≤ -4.2

**Q.** For C8G C14U A26C U61A C69U G80A U145G, which “polymerase ribozyme fitness (log ratio)” value is on record?
**A.** ≤ -4.2

**Q.** For U7C, which “polymerase ribozyme fitness (log ratio)” value is on record?
**A.** -1.19

**Q.** Which “polymerase ribozyme fitness (log ratio)” value does the source give for U7A here?
**A.** -2.18

**Q.** With U7G as the variant, how does the “polymerase ribozyme fitness (log ratio)” value read?
**A.** -2.22

**Q.** With C8U A49U A52G as the variant, how does the “polymerase ribozyme fitness (log ratio)” value read?
**A.** -3.79

**Q.** Which “polymerase ribozyme fitness (log ratio)” value does the source give for C8G C63U G68A G92A A107U A142G here?
**A.** ≤ -4.2

**Q.** For U6C G70A C76G C87A G88A C116A, which “polymerase ribozyme fitness (log ratio)” value is on record?
**A.** ≤ -4.2

**Q.** With U7G A16U A28C G62C G86U C95U A110U as the variant, how does the “polymerase ribozyme fitness (log ratio)” value read?
**A.** ≤ -4.2

**Q.** For C8U G67A U82G U90G C96A C105A C116A C125U U135A A147C U148G, which “polymerase ribozyme fitness (log ratio)” value is on record?
**A.** ≤ -4.2

**Q.** For C8A A20G G68C C85A G126A, which “polymerase ribozyme fitness (log ratio)” value is on record?
**A.** ≤ -4.2

**Q.** Which “polymerase ribozyme fitness (log ratio)” value does the source give for C8A C14G U55A C85U G88U A138U here?
**A.** ≤ -4.2

**Q.** Which “polymerase ribozyme fitness (log ratio)” value does the source give for C8A A17C A24G A30G C35G G81C A89C G141C here?
**A.** -3.67

**Q.** For C8A A12G A41C A47G U53A G143U U151C, which “polymerase ribozyme fitness (log ratio)” value is on record?
**A.** ≤ -4.2

**Q.** Which “polymerase ribozyme fitness (log ratio)” value does the source give for C8U C35U G80A G83A U102G U145C U146C here?
**A.** ≤ -4.2

**Q.** For U7C G50U C87A U90A A106C, which “polymerase ribozyme fitness (log ratio)” value is on record?
**A.** ≤ -4.2

**Q.** For U6G A40C, which “polymerase ribozyme fitness (log ratio)” value is on record?
**A.** 1.13

**Q.** Which “polymerase ribozyme fitness (log ratio)” value does the source give for U6G A23G U144G here?
**A.** -3.95

**Q.** For C8U A17G A30U C95U G126A U148G, which “polymerase ribozyme fitness (log ratio)” value is on record?
**A.** ≤ -4.2

**Q.** Which “polymerase ribozyme fitness (log ratio)” value does the source give for C8G C36U C114U A115G U135G A150C here?
**A.** ≤ -4.2

**Q.** Which “polymerase ribozyme fitness (log ratio)” value does the source give for U6G G59U U61A C72U A89G U90A C93G C108U A122U here?
**A.** ≤ -4.2

**Q.** With C8U C57U U61A G117A A121U U134C as the variant, how does the “polymerase ribozyme fitness (log ratio)” value read?
**A.** -4.09

**Q.** With C8G A29U A41G U61A G68A U82C A89G C116U as the variant, how does the “polymerase ribozyme fitness (log ratio)” value read?
**A.** ≤ -4.2

**Q.** With U7G G141C as the variant, how does the “polymerase ribozyme fitness (log ratio)” value read?
**A.** -3.41

**Q.** With U7C U31A G46A G59C C85G C118U as the variant, how does the “polymerase ribozyme fitness (log ratio)” value read?
**A.** ≤ -4.2

**Q.** Which “polymerase ribozyme fitness (log ratio)” value does the source give for U7G A60G here?
**A.** -2.7

**Q.** Which “polymerase ribozyme fitness (log ratio)” value does the source give for U6C C57U G83U G84U A121U here?
**A.** -3.18

**Q.** Which “polymerase ribozyme fitness (log ratio)” value does the source give for U7A C14G A29G C35G C36A G74A A91U C96A here?
**A.** ≤ -4.2

**Q.** Which “polymerase ribozyme fitness (log ratio)” value does the source give for U6G A60C A73C C87A C118U here?
**A.** ≤ -4.2

**Q.** Which “polymerase ribozyme fitness (log ratio)” value does the source give for U6G A20U C43U A47U G59A G65C A73C G88U C96A A142G here?
**A.** ≤ -4.2

**Q.** For U7A C27A G59U G83A G94A C103G, which “polymerase ribozyme fitness (log ratio)” value is on record?
**A.** ≤ -4.2

**Q.** Which “polymerase ribozyme fitness (log ratio)” value does the source give for C8U C95U C116G U135A here?
**A.** -3.94

**Q.** With C8U C10A A23C G59U G88U as the variant, how does the “polymerase ribozyme fitness (log ratio)” value read?
**A.** ≤ -4.2

**Q.** Which “polymerase ribozyme fitness (log ratio)” value does the source give for C8G A22U C85U C103U here?
**A.** ≤ -4.2

**Q.** With C8G C35U G46C C72U G74U C96U A107G as the variant, how does the “polymerase ribozyme fitness (log ratio)” value read?
**A.** ≤ -4.2

**Q.** For U6G A23U C51A U55G A115U, which “polymerase ribozyme fitness (log ratio)” value is on record?
**A.** ≤ -4.2

**Q.** Which “polymerase ribozyme fitness (log ratio)” value does the source give for U7G G48A G59A A60G A97G here?
**A.** -3.81

**Q.** Which “polymerase ribozyme fitness (log ratio)” value does the source give for U6C G42U U77G C87U A122U here?
**A.** ≤ -4.2

**Q.** With U6G U31C U55A C95U A98G G141C as the variant, how does the “polymerase ribozyme fitness (log ratio)” value read?
**A.** -1.61

**Q.** With U6A G83C as the variant, how does the “polymerase ribozyme fitness (log ratio)” value read?
**A.** -0.841

**Q.** Which “polymerase ribozyme fitness (log ratio)” value does the source give for U6G G83C here?
**A.** -0.223

**Q.** For U7C A16U G92C C116G, which “polymerase ribozyme fitness (log ratio)” value is on record?
**A.** -3.77

**Q.** For U6G U33C U77C G80C C85G G86A G112U A120G U151C, which “polymerase ribozyme fitness (log ratio)” value is on record?
**A.** ≤ -4.2

**Q.** Which “polymerase ribozyme fitness (log ratio)” value does the source give for U7C C38U C87A A122U here?
**A.** ≤ -4.2

**Q.** For U6G C54U G81A U135G, which “polymerase ribozyme fitness (log ratio)” value is on record?
**A.** -3.31

**Q.** For C8G A52G C57U G80C U104G U148G, which “polymerase ribozyme fitness (log ratio)” value is on record?
**A.** ≤ -4.2

**Q.** Which “polymerase ribozyme fitness (log ratio)” value does the source give for U6G C95U C96G here?
**A.** -0.705

**Q.** With U6A U53A G86A A91C G128C as the variant, how does the “polymerase ribozyme fitness (log ratio)” value read?
**A.** ≤ -4.2

**Q.** Which “polymerase ribozyme fitness (log ratio)” value does the source give for U7A A22C A28C A60C G92A G143C A147G here?
**A.** ≤ -4.2

**Q.** Which “polymerase ribozyme fitness (log ratio)” value does the source give for U7A G50A U78A C79G G86A C87A C99G A115U G141U here?
**A.** ≤ -4.2

**Q.** For U7A A26G A47G A66U G71C C131U U139G, which “polymerase ribozyme fitness (log ratio)” value is on record?
**A.** ≤ -4.2

**Q.** Which “polymerase ribozyme fitness (log ratio)” value does the source give for C8A C76A C85U G143C A150U here?
**A.** ≤ -4.2

**Q.** For U7C C8G A30C C85G U134A, which “polymerase ribozyme fitness (log ratio)” value is on record?
**A.** ≤ -4.2

**Q.** With C8G C87U as the variant, how does the “polymerase ribozyme fitness (log ratio)” value read?
**A.** -3.36

**Q.** With C8A A30U C43G U144C as the variant, how does the “polymerase ribozyme fitness (log ratio)” value read?
**A.** ≤ -4.2

**Q.** With C8U C57U G71C G86A U104A as the variant, how does the “polymerase ribozyme fitness (log ratio)” value read?
**A.** ≤ -4.2

**Q.** Which “polymerase ribozyme fitness (log ratio)” value does the source give for U6C G48C G65A U78A G80A G88C A106G U127C G152U here?
**A.** ≤ -4.2

**Q.** With C8U G11C A23C A60G G94U G136U U144A as the variant, how does the “polymerase ribozyme fitness (log ratio)” value read?
**A.** ≤ -4.2

**Q.** Which “polymerase ribozyme fitness (log ratio)” value does the source give for U6A U55G U139A here?
**A.** ≤ -4.2

**Q.** With C8A U53A as the variant, how does the “polymerase ribozyme fitness (log ratio)” value read?
**A.** -3.45

**Q.** Which “polymerase ribozyme fitness (log ratio)” value does the source give for U7C G50A A66G here?
**A.** ≤ -4.2

**Q.** For U6G C8G C18U C54U C131U, which “polymerase ribozyme fitness (log ratio)” value is on record?
**A.** -3.56

**Q.** Which “polymerase ribozyme fitness (log ratio)” value does the source give for U6C A22U A26U G84A U144A here?
**A.** -4.15

**Q.** With U6C C18U G59C A66U A73C U101G U139C U144A as the variant, how does the “polymerase ribozyme fitness (log ratio)” value read?
**A.** ≤ -4.2

**Q.** With C8A C114G A142C as the variant, how does the “polymerase ribozyme fitness (log ratio)” value read?
**A.** ≤ -4.2

**Q.** For C8A C35G C51U G59A A73G C76A C85G A138U U151C, which “polymerase ribozyme fitness (log ratio)” value is on record?
**A.** ≤ -4.2

**Q.** Which “polymerase ribozyme fitness (log ratio)” value does the source give for C8G A28G U61A U104A A110U A120G A138C here?
**A.** ≤ -4.2

**Q.** For U6C C35U G59A A66C G84U C93U A98U G100A A106C A142C, which “polymerase ribozyme fitness (log ratio)” value is on record?
**A.** ≤ -4.2

**Q.** With U7A G58C as the variant, how does the “polymerase ribozyme fitness (log ratio)” value read?
**A.** -3.68

**Q.** With C8G G42A G59U A66U C87G U139G as the variant, how does the “polymerase ribozyme fitness (log ratio)” value read?
**A.** ≤ -4.2

**Q.** Which “polymerase ribozyme fitness (log ratio)” value does the source give for C8A U15G C95U A98G C149U A150U here?
**A.** -4.06

**Q.** With C8G A22G U44A A52C A73C C125G as the variant, how does the “polymerase ribozyme fitness (log ratio)” value read?
**A.** ≤ -4.2

**Q.** Which “polymerase ribozyme fitness (log ratio)” value does the source give for U6G A16G A29U C54U G86A U102G here?
**A.** ≤ -4.2

**Q.** For U7G C14G A52C U55C G80A G86U C87A, which “polymerase ribozyme fitness (log ratio)” value is on record?
**A.** ≤ -4.2

**Q.** For U6C C14G A40C A52U A91U, which “polymerase ribozyme fitness (log ratio)” value is on record?
**A.** ≤ -4.2

**Q.** With U7G C27A C93U A107G A150U as the variant, how does the “polymerase ribozyme fitness (log ratio)” value read?
**A.** ≤ -4.2
